Series [1] addresses SUR1-Kir6.2 fusion construct with a 39-residue linker (Mesocricetus auratus | Mus musculus). Description: SEC; screening of fusion constructs: cleared lysate of transfected FreeStyle 293-F cells solubilised in 20 mmol/L HEPES pH 8.0, 120 mmol/L KCl, 1% digitonin, loaded onto a Superose 6 increase column.
Series [2] deals with the molecule itself. Description: cryo-EM structure; Mg-ADP state: purified fusion channel in 20 mmol/L HEPES pH 8.0, 120 mmol/L KCl, 0.1% digitonin, with 2.5 mmol/L MgCl2, 1 mmol/L ADP, 400 μmol/L 08:0 PI(4,5)P2, 500 μmol/L NN414 and 1 mmol/L Na3VO4; C4 symmetry.

The molecule “SUR1-Kir6.2 fusion construct with a 39-residue linker (complex)” displayed a stoichiometry N in series [1] of 4.

B1: Kir6.2 (inward-rectifying potassium channel 6.2) subunit, as part of the SUR1-Kir6.2 fusion construct (natural protein, Mus musculus)
chain: MLSRKGIIPEEYVLTRLAEDPAEPRYRTRERRARFVSKKGNCNVAHKNIREQGRFLQDVFTTLVDLKWPHTLLIFTMSFLCSWLLFAMVWWLIAFAHGDLAPGEGTNVPCVTSIHSFSSAFLFSIEVQVTIGFGGRMVTEECPLAILILIVQNIVGLMINAIMLGCIFMKTAQAHRRAETLIFSKHAVITLRHGRLCFMLRVGDLRKSMIISATIHMQVVRKTTSPEGEVVPLHQVDIPMENGVGGNGIFLVAPLIIYHVIDSNSPLYDLAPSDLHHHQDLEIIVILEGVVETTGITTQARTSYLADEILWGQRFVPIVAEEDGRYSVDYSKFGNTIKVPTPLCTARQLDEDRSLLDALTLASSRGPLRKRSVAVAKAKPKFSISPDSLS
notes: Kir6.2 from Mus musculus (Woo et al., 2013); In the assay it stood as the C-terminal part of the fusion chain of m1; its N-terminus is joined through the 39-residue linker to the C-terminus of SUR1, so it has no free native N-terminus; The linker and the Kir6.2 N-terminus are disordered in the maps; also called mmKir6.2; source: FreeStyle 293-F cells, BacMam system, purified as part of the fusion …
Take B1: the “stoichiometry N” value in series [2] worked out at 4.

The values are drawn from publication PMC5966361, “Ligand binding and conformational changes of SUR1 subunit in pancreatic ATP-sensitive potassium channels” (Protein & Cell, 2018).
